The values that follow are results of earlier work, collected in paper PMC12498412.

The data set has as its target Barnase (Bacillus amyloliquefaciens) (UniProt P00648).

Chain of Barnase (Bacillus amyloliquefaciens) (P00648 48-157): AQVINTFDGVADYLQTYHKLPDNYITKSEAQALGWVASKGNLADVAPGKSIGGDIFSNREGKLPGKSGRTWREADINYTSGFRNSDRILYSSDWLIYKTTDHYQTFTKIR
Chain of Barstar (P11540 2-90): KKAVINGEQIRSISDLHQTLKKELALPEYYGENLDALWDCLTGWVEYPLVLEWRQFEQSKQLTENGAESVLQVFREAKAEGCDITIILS

The term Kd denotes the concentration at which binding is half-saturated. Consider Barstar (from UniProt P11540), for which the Kd is 64 nM.
